Results as given in patent US20250223614A1.

Tests used:
[1] = molecular target: Cfa C-intein fused to the N-terminus of the C-terminal fragment of adenosine base editor ABE8.5 (starting at Cas9 position 310); assay: cell-based or functional assay
[2] = molecular target: Gp41.1 C-intein fused to the N-terminus of the C-terminal fragment of adenosine base editor ABE8.5 (starting at Cas9 position 310); assay: cell-based or functional assay

Substance | A7G Edit % (Exp. 1); average (N = 4) percent A > G conversion [1] | A7G Edit % (Exp. 2); average (N = 4) percent A > G conversion [1] | A7G Edit; average percent A > G conversion measured in Exps. 1-3 [1] | A7G Edit; percent A > G conversion (Exp. 3) [1] | A7G Edit % (Exp. 1); average (N = 4) percent A > G conversion [2] | A7G Edit % (Exp. 2); average (N = 4) percent A > G conversion [2] | A7G Edit; average percent A > G conversion (2 experiments only) [2]
N-terminal fragment of adenosine base editor ABE8.5 (ending at Cas9 position 309) fused at its C-terminus to Cfa N-intein | 48.2% | 74.7% | 64.3% | 70% |  |  | 
N-terminal fragment of adenosine base editor ABE8.5 (ending at Cas9 position 309) fused at its C-terminus to the Gp41.1-SC N-intein |  |  |  |  | 54.9% | 72.5% | 63.7%
